According to PMC11843584:

How the values were obtained:
[1] = biological target: Cleaved TEV-BID (p7 and tBID domains after TEV protease cleavage) (human) (UniProt P55957); test: thioflavin T fluorescence; 5 μM protein with 50 μM peptide, ThT emission spectra against protein alone, peptide alone and buffer
[2] = biological target: BID (BH3-interacting domain death agonist), N-terminal His6-tagged, wild type (human) (UniProt P55957); test: light-scattering titration; peptide titrated into 5 μM BID, scattered photons of a 280-nm beam; 20 mM sodium acetate pH 6.3; also at 10, 24 and 37 °C, with 0.25% or 1% OG, and in 20 mM potassium phosphate pH 5.5 to 8.0

UniProt P55957, sequence (P55957 whole entry, the tested form may be a part): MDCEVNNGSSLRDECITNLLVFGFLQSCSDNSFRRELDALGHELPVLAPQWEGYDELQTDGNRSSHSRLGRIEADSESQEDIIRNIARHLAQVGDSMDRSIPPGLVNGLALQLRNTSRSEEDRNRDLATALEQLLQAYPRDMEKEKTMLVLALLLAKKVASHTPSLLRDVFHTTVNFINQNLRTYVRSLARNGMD

Humanin (HN), wild-type peptide
increase in ThT fluorescence against WT BID [1]: 15%
fold increase in light scattering at pH 8.0 [2]: 8 fold
fold increase in light scattering with 1% (w/v) OG against no detergent [2]: 5 fold
fold increase in scattered photons at 37 °C against 24 °C [2]: 2.5 fold
fold increase in scattered photons at neutral pH against pH 6.0 [2]: 4 fold
protein-to-peptide ratio at the plateau of scattered photons (protein to peptide) [2]: 2
